Usually IC50 stands for the concentration at which inhibition is half-maximal. A higher IC50 goes with a need for much substance. In general, Km refers to the concentration of substrate that gives half-maximal velocity. As usually defined, the kcat is the maximal rate divided by the concentration of active sites. Broadly, the kcat/Km is the turnover number divided by the Michaelis constant.

Numbering of substitutions follows the chain as printed. Names may count otherwise.

In data set [1] the target is T1, AppA (Escherichia coli periplasmic phytase) (Escherichia coli, UniProt P07102).
T1 construct: mature enzyme lacking the periplasmic signal peptide (residues 1–22)
T1 sequence (P07102 23-432): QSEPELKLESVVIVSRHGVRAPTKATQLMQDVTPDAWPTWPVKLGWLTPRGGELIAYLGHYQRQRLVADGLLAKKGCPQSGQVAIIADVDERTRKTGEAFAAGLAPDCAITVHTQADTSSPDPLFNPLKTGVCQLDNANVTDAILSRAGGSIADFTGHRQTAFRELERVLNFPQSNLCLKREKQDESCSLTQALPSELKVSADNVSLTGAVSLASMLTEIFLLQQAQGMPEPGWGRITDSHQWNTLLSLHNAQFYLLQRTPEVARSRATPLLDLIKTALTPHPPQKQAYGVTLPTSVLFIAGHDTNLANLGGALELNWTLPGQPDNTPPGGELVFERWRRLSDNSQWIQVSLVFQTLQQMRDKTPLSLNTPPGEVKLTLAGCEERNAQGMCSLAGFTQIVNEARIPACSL
The data set is described as follows: X-ray crystal structure at […] Å (soak at pH […]); phytase inhibition assay at pH […]. It is filed as biochemical.

Substrate in data set [2]: O=P(O)(O)O[C@H]1[C@H](OP(=O)(O)O)[C@@H](OP(=O)(O)O)[C@H](OP(=O)(O)O)[C@@H](OP(=O)(O)O)[C@H]1OP(=O)(O)O
The data set is described as follows: phosphate release kinetics (Km), HPLC of products. Type of data set: biochemical, Escherichia coli. As to conditions: active site.

[3] abbreviates: preferential hydrolysis of the 1D-6-phosphate.
Where [4] appears, read: predominantly 1D-1/3-phytase activity.

On to `O=S(=O)(O)O[C@H]1[C@H](OS(=O)(=O)O)[C@@H](OS(=O)(=O)O)[C@H](OS(=O)(=O)O)[C@@H](OS(=O)(=O)O)[C@H]1OS(=O)(=O)O` [InsS6], for which the IC50 in data set [1] is about 10 µM.

B1: AppA (Escherichia coli periplasmic phytase) (Escherichia coli K-12) (protein)
chain: T1 sequence (P07102 23-432)
notes: mature enzyme lacking the periplasmic signal peptide (residues 1–22)
With B1, in data set [2] (setting [3]), the Km amounted to 161 µM, the turnover number (kcat) worked out at 10200 s⁻¹ and the specificity constant (kcat/Km) was determined as 6.4e+07 M⁻¹ s⁻¹.

B2: AppA-HET (Escherichia coli K-12; D326E) (protein)
chain: T1 sequence (P07102 23-432) with D304E
notes: as for B1
For the molecule B2, in data set [2], the Km is listed as 171 µM, the turnover number (kcat) amounted to 128 s⁻¹ and the kcat/Km came out at 700000 M⁻¹ s⁻¹.

B3: AppA-HAT (Escherichia coli K-12; D326A) (protein)
chain: T1 sequence (P07102 23-432) with D304A
notes: as for B1
For the molecule B3, in data set [2] (setting [4]), the Km is given as 32 µM, the kcat stood at 10.5 s⁻¹ and the kcat/Km was 320000 M⁻¹ s⁻¹.

B4: AppA-HDE (Escherichia coli K-12; T327E) (protein)
chain: T1 sequence (P07102 23-432) with T305E
notes: as for B1
Turning to B4, in data set [2], the Michaelis-Menten constant (Km) turned out to be 92 µM, the kcat was found to be 1690 s⁻¹ and the kcat/Km turned out to be 1.8e+07 M⁻¹ s⁻¹.

B5: AppA-HAE (Escherichia coli K-12; D326A/T327E) (protein)
chain: T1 sequence (P07102 23-432) with D304A, T305E
notes: as for B1
Take B5: in data set [2], the Km came out at 33 µM, the kcat worked out at 12.5 s⁻¹ and the kcat/Km is 380000 M⁻¹ s⁻¹.

Values taken from PMC9181005, “Insights to the Structural Basis for the Stereospecificity of the Escherichia coli Phytase, AppA” (International Journal of Molecular Sciences, 2022).
